We go through one molecule from publication PMC4577447.

This test concerns the target transcription elongation complex. The test is described as follows: single-molecule fluorescence co-localization.

B1: GreB (natural protein)
chain: MKTPLVTREGYEKLKQELNYLWREERPEVTKKVTWAASLGDRSENADYQYNKKRLREIDRRVRYLTKCLENLKIVDYSPQQEGKVFFGAWVEIENDDGVTHRFRIVGYDEIFGRKDYISIDSPMARALLKKEVGDLAVVNTPAGEASWYVNAIEYVKP
modifications: fluorescent dye label: Cy3 (Figure 5) or Cy3B (Figure 6); position not stated
As to B1, the ka (apparent first-order association rate constant at 0.5 nM GreB) was 0.0149 s⁻¹.
